{
  "source": "the DeepSol protein solubility set",
  "data": [
    {"experiment": "soluble on expression in E. coli; label from the status in PepcDB or PDB records", "values": [
      {"sequence": "MKGGRNRWVTAQESTLALASKCEQFDPDGITLYVFSGRFKRYENVTSAKVNQIFQENDPSGTTDLAAVLKHATDDYFQRKGAGKTKPNGETILVVTDGEPDDRKAVMRVIIEASRRMDKDEELAISFIQVGSDAQATRFLKVLDDELQGAGAKFDICDTVTMEDMEDLSLSEVLLNAITDLEHHHHHH", "soluble on expression in E. coli": "not soluble"},
      {"sequence": "MGALVIRGIRNFNLENRAEREISKMKPSVAPRHPSTNSLLREQISLYPEVKGEIARKDEKLLSFLKDVYVDSKDPVSSLQVKAAETCQEPKEFRLPKDHHFDMINIKSIPKGKISIVEALTLLNNHKLFPETWTAEKIMQEYQLEQKDVNSLLKYFVTFEVEIFPPEDKKAIRSK", "soluble on expression in E. coli": "soluble"},
      {"sequence": "GPGSMVAKQSTAKGGSRYPPLTADQEKEVTELMELMRTKYDPLPQQLLALQRYNPQMEGTASEGAVAGTFFSPIRNYCYYFLISREWDRQKSFEMMQLSVSYREKNELDSRAELPSAICCRGWEQEKVRIALDKPARPTSQRLDRLSAGIEQYFTFGLHYWDKHGQPVVYLNLGSVDEPGLLKKLKQLANIGQTPNLVMWELVQHLIGVQEQLLFYQQMQYAAGTLKAEADDGLIRSATIVIDLNGLTYKMLWKPALDLFMNMLQTLFQYYPKCVHQILLVNSPPMVMFAYKIVRGALPHGVQRKVHIVNVADTPATMQSFIDAQYVPDYLGGLCHCEGGCVRGYDPHQRGTMKDSGTAKSDTRNVQSGDQDDEAGVVTEEITLKAGQELKRAFSLKRAESVVWEFVSANGRDVAFSTYFVPKKAAPSIDTSKLPTSMLESYVVSKASPSEGSDKYTASDDGIFVIVWDNKKSWFTAKYLQLNVFKQAATLTDGA", "soluble on expression in E. coli": "not soluble"},
      {"sequence": "SASFDGPKFKMTDGSYVQTKTIDVGSSTDISPYLSLIREDSILNGNRAVIFDVYWDVGFPETETKTKTSGWSLSSVKLSTRNLCLFLRLPKPFHDNLKDLYRFFASKFVTFVGVQIEEDLDLLRENHGLVIRNAINVGKLAAEARGTLVLEFLGTRELAHRVLWSDLGQLDSIEAKWEKAGPEEQLEAAAIEGWLIVNVWDQLSDE", "soluble on expression in E. coli": "soluble"},
      {"sequence": "MGSDKIHHHHHHMITSDELTENLSPFELSLFLEKKLHEENHNLETLLNAGRGNPNWTAPTPREAFFLLGQFATKETLREGSEQTAGMIQPSFGRTQRFLNFLAENPSKGATFLQEIWTAEHNYFGMDKEMWLDAMLDYVIGDNYPNPVRCLKACEQPIKAYLNQELFSSEAQPFDIFAVEGGTAGICYLFDTLANNYLLEKGDRIALLLPTFAPYLEIPELPRYDFDVVKIKAEQMIIDGKTTYQYSNKEIDKLKDPSIKAVFVVNPSNPTANAMGKPTIEQIKQISAVDNPKLMILTDDVYGTFVPAFRSLFTELPYNTACIYSYSKYFGATGWRVGTIAVSQENIFDQLLKELPVARKMELQARYATLNADTSQINFISRLVADSRDIALNHAAGLSSIQQAMMALFSLYALLKDGQAYKDEVMDICHTREKLLFRTLGIEEPLASLNTAYYCEINFRDWTEKRYGPEFSSYLTKSWTITKVLTSLAEKEKLMLLKADAFGSDKWSVRISLANLATNQYSEVGKRMIRLSEHIKEEWLRQKRQAIK", "soluble on expression in E. coli": "not soluble"},
      {"sequence": "MADKSAYMGAGGYGSGYMGSNASSSGYAREDYAQGGNGGGQQQQNQGSGGNTNPGGQVFKARTDQSCYLGP", "soluble on expression in E. coli": "not soluble"},
      {"sequence": "GEHTTCGCGEHCGCNPCACGREGTPSGRANRRANCSCGAACNCASCGSATAPG", "soluble on expression in E. coli": "soluble"},
      {"sequence": "MQKINDAGELAKHSVVVTTFDTIKTLMNFQTLQKISFERIIIYDAYPIDNTDTQRYKALRQLDATYRWVLTGNLLQQNLANFLKLGEYGDDQLWDTQICPILEGKQCDEKTELSKKIENLLKSVELKFPLENYREMEVGADDSQ", "soluble on expression in E. coli": "not soluble"},
      {"sequence": "INAGTDLDNPKDLEVSDPTETTLSLRWRRPVAKFDRYRLTYVSPSGKKNEMEIPVDSTSFILRGLDAGTEYTISLVAEKGRHKSKPTTIKGSTVVGSPKGISFSDITENSATVSWTPPRSRVDSYRVSYVPITGGTPNVVTVDGSKTRTKLVKLVPGVDYNVNIISVKGFEESEPISGILKTALDS", "soluble on expression in E. coli": "soluble"},
      {"sequence": "MRAMNDRLPSFCTPLDDRWPLPVALPGVQLRSTRFDPALLQPGDFALAGIQPPANILRAVAKRQAEFLAGRLCARAALFALDGRAQTPAVGEDRAPVWPAAISGSITHGDRWAAALVAARGDWRGLGLDVETLLEAERARYLHGEILTEGERLRFADDLERRTGLLVTLAFSLKESLFKALYPLVGKRFYFEHAELLEWRADGQARLRLLTDLSPEWRHGSELDAQFAVLDGRLLSLVAVGA", "soluble on expression in E. coli": "not soluble"}
    ]}
  ]
}
